# B1: myelin oligodendrocyte glycoprotein (MOG): N31A (protein)
# parent chain: MASLSRPSLPSCLCSFLLLLLLQVSSSYAGQFRVIGPRHPIRALVGDEVELPCRISPGKNATGMEVGWYRPPFSRVVHLYRNGKDQDGDQAPEYRGRTELLKDAIGEGKVTLRIRNVRFSDEGGFTCFFRDHSYQEEAAMELKVEDPFYWVSPGVLVLLAVLPVLLLQITVGLIFLCLQYRLRGKLRAEIENLHRTFDPHFLRVPCWKITLFVIVPVLGPLVALIICYNWLHRRLAGQFLEELRNPF
# B2: myelin oligodendrocyte glycoprotein (MOG): N31D (protein)
# parent chain: B1 parent chain
# Assay: FACS of transfected HeLa
# Details: glycan lost; control: wild type MOG
row,Protein,expression_or_secretion
1,B1,no change
2,B2,no change

# — article PMC6579858
